{
  "source": "paper PMC3299833",
  "about": "(Molecular Cell, 2012)",
  "key": {"[1]": {"molecular_target": "the molecule itself", "experiment": "SEC"}, "[2]": {"molecular_target": "the molecule itself", "experiment": "SEC", "remark": "listed apart in the source"}},
  "note": "Like-named read-outs stand apart in the source and are kept apart here.",
  "data": [
    {"protein": "HA-R399E (HA-tagged PKM2 mutant R399E expressed in SW480 cells) (enzyme) not shown", "values": [
      {"measurement": "stoichiometry N", "setting": "[1]", "result": 2}
    ]},
    {"protein": "Recombinant PKM2 mutant R399E (enzyme) not shown", "values": [
      {"measurement": "stoichiometry N", "setting": "[2]", "result": 2}
    ]}
  ]
}
